The target in the experiment is mouse chemokine receptors (mouse). Kind of experiment: cell-based or functional assay.

B1: (LD78β(C11S)Fv^315)2 vaccibody (protein, part only; not given: IgG3 hinge, CH3, scFv carrier, not shown: another chain or arm of the molecule; a dimerising Fc or GST; large carriers; small tags and cut ends)
chain: APLAADTPTASCFSYTSRQIPQNFIADYFETSSQCSKPSVIFLTKRGRQVCADPSEEWVQKYVSDLELSA
modifications: not fully specified (C-terminus); ends and bridges not checked; also: covalent homodimer via IgG3 hinge disulfides, C-terminal carrier (IgG3 hinge, CH3, scFv315) not in chain
Turning to B1, the ability to stimulate T cells (proliferation of Id^315-specific Th2 cells with BALB/c splenocytes as APC) stood at 100 fold.

For the origin of these results see patent US20230065226A1.
